# Data as given in patent US20200141935A1, “SYSTEM, METHOD, APPARATUS AND DIAGNOSTIC TEST FOR PREGNANCY” (BARCELONA INSTITUTE FOR GLOBAL HEALTH, priority 2017, published 2020).
# B1: AMA1: recombinant apical membrane antigen 1, from 3D7 strain (protein)
# chain: QNYWEHPYQNSDVYRPINEHREHPKEYEYPLHQEHTYQQEDSGEDENTLQHAYPIDHEGAEPAPQEQNLFSSIEIVERSNYMGNPWTEYMAKYDIEEVHGSGIRVDLGEDAEVAGTQYRLPSGKCPVFGKGIIIENSNTTFLTPVATGNQYLKDGGFAFPPTEPLMSPMTLDEMRHFYKDNKYVKNLDELTLCSRHAGNMIPDNDKNSNYKYPAVYDDKDKKCHILYIAAQENNGPRYCNKDESKRNSMFCFRPAKDISFQNYTYLSKNVVDNWEKVCPRKNLQNAKFGLWVDGNCEDIPHVNEFPAIDLFECNKLVFELSASDQPKQYEQHLTDYEKIKEGFKNKNASMIKSAFLPTGAFKADRYKSHGKGYNWGNYNTETQKCEIFNVKPTCLINNSSYIATTALSHPIEVENNFPCSLYKDEIMKEIERESKRIKLNDNDDEGNKKIIAPRIFISDDKDSLKCPCDPEMVSNSTCRFFVCKCVERRAEVTSNNEVVVKEEYKDEYADIPEHKPTYDKMK
# Tests used:
# P. falciparum = experiment: Prevalence of infection by qPCR at delivery by intermittent preventive treatment group; format: in vivo, pregnant women; settings: for PCR prevalence of infection (%): by IPTp group
# Description: All women included in the study received bed nets treated with long-lasting insecticide. At delivery, HIV serostatus was assessed using a rapid diagnostic test and hemoglobin was determined in capillary blood sample using mobile devices (HemoCue, Hemocontrol and Sysmex KX analyzer). Tissue samples from the maternal side of the placenta, as well as maternal peripheral-, placental-blood samples were collected at delivery. Dried blood spots onto filter paper were prepared (50 ul) and blood was collected into EDTA vacutainers and centrifuged, with the plasma stored at −20° C. […] Clinical malaria episodes were treated according to national guidelines at the time of the study. Biases due to pooling of data from these two clinical trials were minimized by the use of similar protocols and procedures during the two trials. […] P. falciparum infection at delivery was defined if peripheral or placental blood samples were positive by microscopy or qPCR or if histology positive (active or chronic). Infection during pregnancy was defined if peripheral or placental blood samples were positive by microscopy or qPCR at any time-point of collection, if P. falciparum detected by hospital passive case detection (PCD), or if histology positive (active, chronic or past) on the sub-set of women from longitudinal cohort. Seroprevalences between countries (Benin, Gabon and Mozambique for HIV-uninfected and Kenya and Mozambique for HIV-infected), between IPTp intervention group (MQ vs SP for HIV-uninfected and MQ vs Placebo for HIV infected) and anemia status were compared by logistic regression models adjusted by parity, age and treatment.
# IgG [1] = experiment: Antibody dynamics during pregnancy (time to double, half-life, sero-reversion) from bead-based immunoassay; format: binding, pregnant Mozambican women
# Excerpt: (§1) Two multiplex suspension array panels were constructed to quantify IgG responses against P. falciparum recombinant proteins and synthetic peptides, using the xMAP™ technology and the Luminex® 100/200™ System (Luminex® Corp., Austin, Tex.). MagPlex® microspheres (magnetic carboxylated polystyrene microparticles, 5.6 μm) with different spectral signatures were selected for each protein (DBL3X, DBL5ϵ, DBL6ϵ, AMA1 and MSP119), peptides (25 VAR2CSA peptides and pCSP), tetanus toxin and bovine serum albumin (BSA). Antigens were covalently coupled to beads following a modification of the Luminex® Corporation protocol. Protein and peptide multiplex arrays were prepared by pooling together equal volumes of coated beads. Plasma samples or the product of DBS elution were analyzed in duplicate at dilution 1:400 for the protein array and 1:100 for the peptide array. A hyperimmune plasma pool composed by 23 plasmas from malaria infected Mozambican pregnant women (HIP-VAR2CSA) was included in each assay plate, in addition to blanks (wells without sample) to assess background levels. A minimum of 50 microspheres were read per spectral signature and results were exported as crude median fluorescent intensity ([…]). Duplicates were averaged and background MFIs were subtracted. A total of 224 plates were analyzed and the intra-assay variation (mean CV of replicates from 20 plasma samples per plate) ranged from 1.4% to 7.3% for the protein array and from 2.5% to 12.4% for the peptide array. The inter-assay variation (variability of positive pool [HIP-VAR2CSA] between 224 plates) was 5% for the protein array and 26% for the peptide array. Results were normalized (nMFI) to account for plate-to-plate variation by […] the background subtracted MFI of each sample with the value of the positive pool in the same plate and dividing by the median of positive pools in all plates.
# The adjusted effect of infection on antibody levels was analyzed using log-linear mixed-effects regression models incorporating Gaussian random intercepts. […] Time to double the antibody levels (T2x) and half-lives were calculated in weeks from the estimated rates and the boundaries at 95% confidence interval obtained from mixed-effects models for subjects suffering a P. falciparum infection at follow-up independent of antibody status at recruitment (Ab[−or+]/Pf+) and subjects seropositive at recruitment and no infection detected on follow-up (Ab+/Pf−), respectively. In situations that the increase rate is a negative value (rate below 1) or the decay rate is a positive value (rate above 1), the calculated T2x or half-life was reported as infinity. Similarly, the time to sero-reversion was calculated for these subjects using the ratio of the seropositivity cutoff by the average antibody titers at recruitment as decay, i.e. how many times the average titers need to be reduced to be equal the cutoff.
# IgG [2] = experiment: Multiplex bead-based immunoassay: seroprevalence (finite mixture models or negative control cutoff); format: binding, pregnant women; settings: for Seroprevalence MQ (%): IPTp with mefloquine; for Seroprevalence Non-A (%): non anemia
# Excerpt: as §1
# (§2) Antibodies were eluted from DBS from Gabon, […] and Kenya, as previously described. Briefly, to achieve a concentration of eluted blood proteins equivalent to a 1:50 plasma dilution antibodies were eluted from four spots of approximately 3 mm in diameter with 200 μl Luminex® assay buffer (1% BSA, 0.05% sodium azide in filtrated PBS [Phosphate-buffered saline]). […]. Controls blood drops were artificially prepared using fresh erythrocytes (blood type 0, assuming a hematocrit approximately of 50%) and freeze plasma from 49 Spanish pregnant women. Filter papers were stored avoiding humidity at −20° C. in Barcelona.
# (§3) Presence or absence of antibodies was defined by finite mixture models (FMM) for pregnancy-specific antigens (VAR2CSA peptides and recombinant domains) and by the mean plus 3 standard deviation (SD) of IgG response from pregnant women from Barcelona for general malaria antigens (AMA1, MSP119, and pCSP).
# (§4) Data was fitted to a normal distribution by logarithmic transformation of nMFIs. Participant's baseline characteristics and parasitological outcomes were compared between study times and areas by univariate analysis (Fisher's tests for binary outcomes or t-Student test for continuous outcomes). Responses were considered not restricted to malaria when seroprevalences were 5% or high among Spanish pregnant women.
# Seroprevalences between countries (Benin, Gabon and Mozambique for HIV-uninfected and Kenya and Mozambique for HIV-infected), between IPTp intervention group (MQ vs SP for HIV-uninfected and MQ vs Placebo for HIV infected) and anemia status were compared by logistic regression models adjusted by parity, age and treatment.
# The modification of the associations by HIV infection or parity was assessed by including interaction terms into the regression models.
# IgG [3] = experiment: Multiplex bead-based immunoassay (Luminex): IgG levels (nMFI) against antigens, compared between groups; format: binding, pregnant women
# Excerpt: as §1, §2, §3, §4
# Linear regression models were used to compare antibody levels from Mozambican and Spanish pregnant women. The capacity of antibody levels to mimic malaria trends in Mozambique was analyzed by linear regression models (2010 was compared with 2003-2005 corresponding to a trend of malaria decrease and 2011-2012 with 2010 to a trend of increase) adjusted by treatment, parity, age and HIV.
# The impact of P. falciparum infection during pregnancy on antibodies at delivery was assessed in linear regression models adjusted by age, parity, HIV and treatment. Changes in antibody levels due to parasite density (below or above 200) were assessed by linear regression models adjusted by age, parity, HIV and treatment. […]
# [4] = HIV uninfected, qPCR in peripheral and placental blood at delivery
molecule,measurement,setting,value
"OC(c1cc(C(F)(F)F)nc2c(C(F)(F)F)cccc12)C1CCCCN1 (stereo not drawn) [MQ, mefloquine]",PCR MQ (OR),"P. falciparum; HIV infected, MQ with Placebo as reference",0.24 (0.10; 0.59)
same,PCR prevalence of infection (%),"P. falciparum; HIV infected, qPCR at delivery",2%
same,PCR prevalence of infection (%),P. falciparum; [4],18%
sulfadoxine-pyrimethamine [SP],PCR SP (OR),"P. falciparum; HIV uninfected, SP with MQ as reference",1.93 (1.28; 2.91)
same,PCR prevalence of infection (%),P. falciparum; [4],27%
B1,Antibody dynamics Sero-revertion weeks (95% CI),"IgG [1]; time to sero-negativisation, seropositive at recruitment, no infection on follow-up",544.49 (242.56; ∞) weeks
same,Antibody dynamics Time to double weeks (95% CI),"IgG [1]; women with P. falciparum infection on follow-up, log-linear mixed-effects model",91.65 (39.61; ∞) weeks
same,SeroPrev Delivery %,IgG [2]; 239 pregnant Mozambican women followed 2011-2012,89%
same,Seroprevalence MQ (%),IgG [2]; HIV infected,92%
same,Seroprevalence K (%),"IgG [2]; HIV infected, Kenya, at delivery",95%
same,MQ (OR),"IgG [2]; HIV infected, MQ, Placebo as reference",0.6 (0.32; 1.12)
same,M (OR),"IgG [2]; HIV infected, Mozambique, Kenya as reference",0.76 (0.40; 1.45)
same,Seroprevalence M (%),"IgG [2]; HIV infected, Mozambique, at delivery",93%
same,Seroprevalence PL (%),"IgG [2]; HIV infected, Placebo group",95%
same,Seroprevalence A (%),"IgG [2]; HIV infected, anemia",92%
same,A (OR),"IgG [2]; HIV infected, anemia, Non-A as reference",0.79 (0.41; 1.51)
same,Seroprevalence Non-A (%),IgG [2]; HIV infected,94%
same,Seroprevalence B (%),"IgG [2]; HIV uninfected, Benin, at delivery",100%
same,Seroprevalence G (%),"IgG [2]; HIV uninfected, Gabon, at delivery",82%
same,Seroprevalence MQ (%),IgG [2]; HIV uninfected,96%
same,Seroprevalence SP (%),"IgG [2]; HIV uninfected, IPTp with sulfadoxine-pyrimethamine",96%
same,Seroprevalence M (%),"IgG [2]; HIV uninfected, Mozambique, at delivery",93%
same,Seroprevalence A (%),"IgG [2]; HIV uninfected, anemia",96%
same,Seroprevalence Non-A (%),IgG [2]; HIV uninfected,96%
same,Seroprevalence in Tanzania,"IgG [2]; HIV-uninfected women, area of Tanzania where no malaria infection was observed",42%
same,Seroprevalence 2003/4 (%),"IgG [2]; Mozambican pregnant women at delivery, 2003/4",99%
same,Seroprevalence 2005 (%),"IgG [2]; Mozambican pregnant women at delivery, 2005",98%
same,Seroprevalence 2010 (%),"IgG [2]; Mozambican pregnant women at delivery, 2010",93%
same,Seroprevalence 2011 (%),"IgG [2]; Mozambican pregnant women at delivery, 2011",89%
same,Seroprevalence 2012 (%),"IgG [2]; Mozambican pregnant women at delivery, 2012",92%
same,SeroPrev PW Bcn (%),IgG [2]; seroprevalence among pregnant Spanish women never exposed to malaria,2%
same,Decrease (OR),"IgG [2]; seroprevalence odds ratio 2010 vs 2003/5, Mozambique, adjusted",0.24 (0.06; 0.93)
same,Increase (OR),"IgG [2]; seroprevalence odds ratio 2011/12 vs 2010, Mozambique, adjusted",0.58 (0.29; 1.16)
same,Immunoreactivity: recognition by IgGs at levels above BSA recognition,"IgG [3]; 641 pregnant Mozambican women 2003-2012, mean nMFI above mean BSA nMFI plus 3 SD",above BSA recognition
same,Infection during pregnacy Infection vs no-infection ratio (95% CI),"IgG [3]; nMFI at delivery, Mozambican women followed 2011-2012, adjusted",1.8 (1.30; 2.50)
same,Parity MG vs PG ratio (95% CI),"IgG [3]; nMFI at delivery, multigravid vs primigravid Mozambican women, adjusted",1.2 (0.76; 1.9)
same,Exposure dependence Increase 2011-2012 vs 2010 Ratio (95% CI),"IgG [3]; nMFI ratio at delivery, Mozambique, adjusted by parity, age, treatment and HIV",0.88 (0.73; 1.07)
same,PW Mz vs PW Bcn Ratio (95% CI),"IgG [3]; nMFI ratio, pregnant Mozambican women vs pregnant Spanish women (N=49)",24.51 (18.53; 32.43)
same,Parasite density Low vs High ratio (95% CI),"IgG [3]; nMFI ratio, below or above 200 genomes per microliter, adjusted",1.18 (0.96; 1.46)
